From patent US20250186614A1, “COMPACT DRUG RESPONSIVE DOMAINS FOR REGULATION OF FUNCTION/ABUNDANCE AND DELIVERY OF POLYPEPTIDE PAYLOADS” (OBSIDIAN THERAPEUTICS, INC., priority 2022, published 2025)
Substitutions are numbered along the chain they refer to. Numbers in names are those of the source.

B1: FKBP-168: FKBP13 DRD-AcGFP construct of Table 10 (protein)
chain: HCPIKSRKGDVLHAHYTGKLEDGTEFDSSLPRNQPFVFSLGWGRRIKGWDQGLLGMCEGEKRKLVIPSELGYGERGWPPKIPGGATLVFEVELLKIER
modifications: Description of sequence: Construct Name: FKBP-168; Mutation(s): Q72R T82W Q84R A117W DRD M54A V85R
B2: FKBP-167: FKBP13 DRD-AcGFP construct of Table 10 (protein)
chain: B1 chain with S39W, W42T
modifications: Description of sequence: Construct Name: FKBP-167; Mutation(s): Q72R S79W Q84R A117W DRD M54A V85R
B3: FKBP-169 (protein)
chain: B1 chain with R44E, R45V
modifications: Description of sequence: Construct Name: FKBP-169; Mutation(s): Q72R T82W Q84E A117W DRD M54A
B4: FKBP-177 (protein)
chain: B1 chain with L40G, W42T, R44E, R45V
modifications: Description of sequence: Construct Name: FKBP-177; Mutation(s): Q72R Q84E A117W DRD M54AL80G
B5: FKBP-166 (protein)
chain: B1 chain with S39W, W42T, R44E
modifications: Description of sequence: Construct Name: FKBP-166; Mutation(s): Q72R S79W Q84E A117W DRD M54A V85R
B6: FKBP-170 (protein)
chain: B1 chain with R44E
modifications: Description of sequence: Construct Name: FKBP-170; Mutation(s): Q72R T82W Q84E A117W DRD M54A V85R
B7: FKBP-178 (protein)
chain: B1 chain with F38S, W42T, R44E, R45V
modifications: Description of sequence: Construct Name: FKBP-178; Mutation(s): Q72R Q84E A117W DRD M54AF78S
B8: FKBP-171 (protein)
chain: B1 chain with D10L, W42T, R44E, R45V
modifications: Description of sequence: Construct Name: FKBP-171; Mutation(s): Q72R Q84E A117W DRD M54A D50L
B9: FKBP-172 (protein)
chain: B1 chain with W42T, R44E, R45V, M56W
modifications: Description of sequence: Construct Name: FKBP-172; Mutation(s): Q72R Q84E A117W DRD M54A M96W
B10: FKBP-159: FKBP13 DRD Q72R, Q84E, A117W, M54A G111Y; SEQ ID NO: 109 (protein)
chain: B1 chain with W42T, R44E, R45V, G71Y
modifications: Description of sequence: FKBP13-AcGFP-mCherry Fusion; Construct Name: FKBP-159; FKBP13 DRD in Construct : FKBP13 (mutated to match FKBP12 active site Q72R Q84E A117W) (DRD M54A G111Y)
B11: FKBP-151: FKBP13 DRD Q72R, Q84R, A117W, M54A; SEQ ID NO: 101 (protein)
chain: B1 chain with W42T, R45V
modifications: Description of sequence: FKBP13-AcGFP-mCherry Fusion; Construct Name: FKBP-151; FKBP13 DRD in Construct : FKBP13 (mutated to match FKBP12 active site Q72R Q84R A117W) (DRD M54A)
B12: FKBP-152: FKBP13 DRD Q72R, Q84W, A117W, M54A; SEQ ID NO: 102 (protein)
chain: B1 chain with W42T, R44W, R45V
modifications: Description of sequence: FKBP13-AcGFP-mCherry Fusion; Construct Name: FKBP-152; FKBP13 DRD in Construct : FKBP13 (mutated to match FKBP12 active site Q72R Q84W A117W) (DRD M54A)

System: not listed separately
Experiment: Example 4: dose response of FKBP constructs 160-255, Ec50, Ec90 and fold change (raw and normalized to mCherry)
Type: cell-based
Details: FKBP constructs 160-255; not normalized; read-out: EC90
Procedure: Additional experiments were performed for constructs FKBP-160-292.

Molecule | EC90
B1 | 342 nM
B2 | 348 nM
B3 | 448 nM
B4 | 18700 nM
B5 | 220 nM
B6 | 133 nM
B7 | 22300 nM
B8 | 8160 nM
B9 | 1050 nM

Same assay, conditions: fold change during initial analysis

Molecule | FC (fold change)
B1 | 60.2
B2 | 46.8
B3 | 50.1
B4 | 22.3
B5 | 46.0
B6 | 47.6
B7 | 36.4
B8 | 60.3
B9 | 63.1

Same assay, conditions: normalized to mCherry; read-out: EC90 (Norm)

Molecule | EC90
B1 | 351 nM
B2 | 334 nM
B3 | 493 nM
B4 | 23900 nM
B5 | 223 nM
B6 | 138 nM
B7 | 28400 nM
B8 | 10100 nM
B9 | 1310 nM

System: Jurkat cells
Experiment: Tacrolimus dose response of FKBP13-AcGFP-mCherry constructs stably transduced into Jurkat cells, GFP MFI by flow cytometry
Type: cell-based
Parameters: Basal: unit not given here
Details: FIG. 44
In short: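 GFP geometric MFI was read by flow cytometry in mCherry+ cells and curve-fitted against tacrolimus dose. Cells were Jurkat E6-1, lentivirus-transduced with FKBP13-AcGFP-mCherry fusion constructs until 10-25% mCherry-positive on day 5 post-transduction.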

Molecule | Basal | FC
B1 | 72.7 | 60.19
B2 | 96 | 47.22

Same assay, conditions: FIG. 44; at 10 uM

Molecule | At 10 uM
B1 | 4376
B2 | 4533

Same assay, conditions: read-out: Tacrolimus EC90 (Norm); tacrolimus; normalized; Table 14

Molecule | EC90
B1 | 351 nM
B2 | 334 nM
B3 | 493 nM
B4 | 23900 nM
B5 | 223 nM
B6 | 138 nM
B7 | 28400 nM
B8 | 10100 nM
B9 | 1310 nM

Same assay, conditions: read-out: Tacrolimus EC90; tacrolimus; Table 14

EC90 | Molecule
342 nM | B1
348 nM | B2
448 nM | B3
18700 nM | B4
220 nM | B5
133 nM | B6
22300 nM | B7
8160 nM | B8
1050 nM | B9

Same assay, conditions: tacrolimus, Jurkat cells stably transduced; Table 7

Molecule | Fold Change
B10 | 1.06
B11 | 42.03
B12 | 30.34

Same assay, conditions: tacrolimus; fold change; Table 14

Molecule | Tacrolimus FC
B1 | 60.2
B2 | 46.8
B3 | 50.1
B4 | 22.3
B5 | 46
B6 | 47.6
B7 | 36.4
B8 | 60.3
B9 | 63.1

System: Jurkat cells
Experiment: Sirolimus (rapamycin) dose response of FKBP13 constructs stably transduced into Jurkat cells, flow cytometry
Type: cell-based
Details: rapamycin (sirolimus), Jurkat cells stably transduced; Table 8
Procedure: Normalized EC50 values were calculated from the mCherry normalized GFP MFI values, which accounted for any differences in mCherry intensity between samples.

Molecule | Fold Change
B10 | 0.81
B11 | 10.15
B12 | 23.17

Same assay, conditions: rapamycin; Table 14; read-out: Rapamycin EC90

EC90 | Molecule
1380 nM | B1
1720 nM | B2
1390 nM | B3
5280 nM | B4
1640 nM | B5
785 nM | B6
16800 nM | B7
16000 nM | B8
2140 nM | B9

Same assay, conditions: rapamycin; fold change; Table 14

Molecule | Rapamycin FC
B1 | 18
B2 | 11.3
B3 | 10.8
B4 | 2.3
B5 | 15.7
B6 | 16.1
B7 | 2.9
B8 | 14.1
B9 | 21.3

Same assay, conditions: rapamycin; normalized; Table 14; read-out: Rapamycin EC90 (Norm)

Molecule | EC90
B1 | 1330 nM
B2 | 1710 nM
B3 | 1420 nM
B4 | 6330 nM
B5 | 1580 nM
B6 | 818 nM
B7 | 151000 nM
B8 | 18000 nM
B9 | 2290 nM

Same assay, conditions: ratio of Table 7 and Table 8 EC50 values, Jurkat cells

EC50 (tacrolimus)/ EC50 (rapamycin) | Molecule
1.22 | B10
0.91 | B11
0.55 | B12

Same assay, conditions: ratio of Table 7 and Table 8 fold changes, Jurkat cells

Molecule | Fold change (tacrolimus)/ Fold change (rapamycin)
B10 | 1.31
B11 | 4.14
B12 | 1.31
